Test results as given in article doi:10.1101/2021.10.11.463904 (bioRxiv, 2021).
Read-outs that look alike come from different tables or passages of the source. Ends that are not written are not given here. * marks the point of attachment. FITC = O=C1OC2(c3ccc(O)cc3Oc3cc(O)ccc32)c2ccc(NC(=S)*)cc21; Ahx = NCCCCCC(=O)O

Legend:
[1] = molecular target: FITC-Mature-1cys (Mus musculus) (UniProt P09535); assay: fluorescence polarisation
[2] = molecular target: FITC-Mature-1cys (Mus musculus) (UniProt P09535); assay: fluorescence polarisation; remark: listed apart in the source
[3] = molecular target: BSA (bovine (from the name BSA), UniProt P02769 25-607); assay: fluorescence polarisation
BSA, sequence (P02769 25-607): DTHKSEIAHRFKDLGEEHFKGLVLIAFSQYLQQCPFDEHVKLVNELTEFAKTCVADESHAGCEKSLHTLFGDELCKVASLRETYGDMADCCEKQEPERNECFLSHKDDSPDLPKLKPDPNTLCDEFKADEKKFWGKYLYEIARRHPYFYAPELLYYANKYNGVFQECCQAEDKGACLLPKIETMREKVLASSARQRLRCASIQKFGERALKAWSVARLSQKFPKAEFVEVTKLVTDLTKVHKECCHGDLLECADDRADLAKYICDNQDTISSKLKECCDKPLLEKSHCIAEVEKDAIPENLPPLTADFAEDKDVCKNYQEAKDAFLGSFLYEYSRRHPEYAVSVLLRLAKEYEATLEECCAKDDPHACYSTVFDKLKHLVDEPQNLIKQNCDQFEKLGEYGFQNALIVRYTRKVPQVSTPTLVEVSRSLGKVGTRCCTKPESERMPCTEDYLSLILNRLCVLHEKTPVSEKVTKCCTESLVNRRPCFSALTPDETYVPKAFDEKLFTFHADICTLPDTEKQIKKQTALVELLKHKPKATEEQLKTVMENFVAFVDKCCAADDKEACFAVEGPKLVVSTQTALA

[4] = molecular target: T1, BiP (UniProt P20029 20-655); assay: fluorescence polarisation
T1 sequence (P20029 20-655): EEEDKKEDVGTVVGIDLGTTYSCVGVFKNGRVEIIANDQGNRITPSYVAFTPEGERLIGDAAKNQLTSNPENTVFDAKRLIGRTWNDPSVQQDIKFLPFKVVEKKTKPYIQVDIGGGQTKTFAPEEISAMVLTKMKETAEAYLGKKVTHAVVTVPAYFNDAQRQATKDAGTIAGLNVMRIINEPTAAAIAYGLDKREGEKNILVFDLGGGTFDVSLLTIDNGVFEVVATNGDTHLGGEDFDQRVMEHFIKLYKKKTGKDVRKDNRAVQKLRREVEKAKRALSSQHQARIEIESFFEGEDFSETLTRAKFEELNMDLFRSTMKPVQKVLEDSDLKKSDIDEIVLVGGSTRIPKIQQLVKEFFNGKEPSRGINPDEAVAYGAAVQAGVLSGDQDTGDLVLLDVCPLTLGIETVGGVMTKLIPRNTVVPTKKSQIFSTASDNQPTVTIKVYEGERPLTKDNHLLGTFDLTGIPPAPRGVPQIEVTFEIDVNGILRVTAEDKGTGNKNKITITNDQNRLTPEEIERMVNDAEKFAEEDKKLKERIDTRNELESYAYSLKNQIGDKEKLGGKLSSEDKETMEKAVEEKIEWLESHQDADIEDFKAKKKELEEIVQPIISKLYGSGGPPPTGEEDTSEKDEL

[5] = molecular target: T1, BiP; assay: fluorescence polarisation; remark: listed apart in the source
[6] = molecular target: T1, BiP; assay: fluorescence polarisation; remark: listed apart in the source
[7] = molecular target: the molecule itself; assay: dynamic light scattering

BiP (from UniProt P20029 20-655) (natural protein), sequence (P20029 20-655): as above
FITC-Mature-1cys (Mus musculus), sequence (P09535 25-91): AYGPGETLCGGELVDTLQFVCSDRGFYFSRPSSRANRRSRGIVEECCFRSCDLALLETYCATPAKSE

Molecule	Kd [4] [µM]	Kd [6] [µM]	also measured
BiP (from UniProt P20029 20-655) (natural protein)			Kd [1]: 9.7 µM; Kd [2]: 2.7 µM
{FITC-Ahx}-DDFPRYPVGKFFQYDTWR [FITC-E-peptide 103-120]	13 ± 2	0.95 ± 0.17	Kd [3]: 13 ± 2 µM; Kd [5]: 0.46 ± 0.05 µM
{FITC-Ahx}-QSAGRLRRGLPALLRARRG [FITC-E-peptide 121-139]		5.3 ± 0.6	
{FITC-Ahx}-EAKRHRPLIVLPPKDPAHG [FITC-E-peptide 151-169]		15 ± 1	
RDVC(FITC‑maleimide)TSQAVLPDDFPRYPVGKFFQYDTWR (domain or fragment) [FITC-E-peptide 92-120]	8 ± 3.8	0.67 ± 0.17	
RDVC(FITC‑maleimide)TSQAVLPDDFPRYPVGKFFQYDTWRQSAGRLRRGLPALLRARRG (domain or fragment) [FITC-E-peptide 92-139]	1.9 ± 0.6	0.52 ± 0.13	
E-peptide (domain or fragment) RDVCTSQAVLPDDFPRYPVGKFFQYDTWRQSAGRLRRGLPALLRARRGRMLAKELKEFREAKRHRPLIVLPPKDPAHGGASSEMSSNHQ			binding result [7]: binds
